Test results from the DeepSol protein solubility set.

Experiment: soluble on expression in E. coli; label from the status in PepcDB or PDB records
For “MGPVPIKLALVIPNYNHSAAISQALSELAALNLPCYLIDDGSNDETRYLLQSLAEQHDWVTLLQHPYNRGKGAAVMTGLRSAYRDGFTHALQVDADGQHNLSDIPAMLAKAQAKPDALISGKPEYDKSVPKGRLYGRYLTHFWVWVETLSFDIQDSMCGFRVYPLAATERLFSKQALTERMDFDIEILVKLYWQGVEILFHPTKVIYPENGVSHFQCVADNVRISKLHTRLFFGMLKRLPQLLRRKQAAKSTSSAHTATHWSAMKERGSYWGIKLLVESYRFGGHWLCRAIMYPVICYFFLTGKVSREASRDFLRRVQHLEPQHPQLNQPVGWRDSLNHFIAFGNAALDRIDAWCDRIQLSQVDFPDRQVLADQLESGKGAVLLVSHLGNLELCRAISIHQRKVKVNVMVLTSHAENFNNVLKQLNPNSSLNLIQVTELNPATSMLLQQKIEDGELVVIAGDRTSSHAQGRVVYAPFMGQDAAFPQGPFILAGLLDCPVYLMFCLREQGRYRVHLERFAETLKGPRAGRMERLQQAVYRYSERLEHYARREPLQWFNFFDFWRDDNQVNRATSAHKTTAALPEQERTTDRTEHLLEHHHHHH”, the “soluble on expression in E. coli” value was “soluble”. For “MNITDLKPTKVWKFFHEITQVPRPSKKEEKILAYLVKFAEDRNLKYRTDEVGNLVIEKPATPGYEHLETVILQSHMDMVCEKNADKVHDFENDPIRTIIDGEWLHADGTTLGADNGIGCAAELAILDSDDIEHGPIECLFTMDEETGMTGAMNLKPGFFNGKILLNLDSEDEGELFIGCAGGMGTMVEFAYEKREATDDYLYFEVKVSGLKGGHSGGEIHIGLGNANKILTRYLYALEHELDWKLCSFQGGNLHNAIPREAHAVIGLKADQKERARVILNELAAAVEDELKRVDPGVKLEMKSVGKPAYRIDCDTKRRLVRALYACPHGVYGMSHDIEGLVETSSNLASVKMKEDDKIYVETSQRSSTSSLISDIANTVASVFELADAKISFRDPYPGWKPNPDSPILKAASESYERIFGRKPAIKAIHAGLECGLFLDKYPYLDMVSFGPTLRDVHSPVEKIEIKTVQLWWDHLVDILKHIPAAK”, the “soluble on expression in E. coli” value was “not soluble”. In the case of “MSLEREKVELFKEVLKKLHKGEDVESLKKQFGELLSQIPPFEIPVIEQELLKSGEIDVRDIIKMCDLHVEFFRGAVSEAGREIEKLPNGHPLRTLYEENKQILKDAEALSLLASSMFSLPKDDPRRKQFYEKLVQHVSELHRIGLTHYTREEMLIFPYIERRGITAVPTVLWSKHDETRLKIRLLLNLLKKEESDERLKEEALELSRMLSDMVFRENNILYPTLKVLLTEGEWKAIKMLEKDIGYYKIEVTEEWETPEKPLLPHRNCLRRPIPFRGLGGSRHVYHLQIQEGHHHHHH”, the “soluble on expression in E. coli” value is reported as “soluble”. For “MAHHHHHHMVENEVYNRDMRIVRSRERLDGRPTLRSFFNKDGLLLKTYGWIVRNAVGLIVLIHGLNSHTRFSFLRHNVHVFNNRAILMDADNYYIYKNSWIEHFNKNGYSVFGIDLQSHGESEGWENLSLNVKEFDDLVYDVLEYIQKVQDDNARYMNYSSSSYSSSSSRSNSSSNSSSNSGSNSNSNSNSNSRGGESPRNDNSANRMIAPLPVYLIGQSMGGNVALRALQIVGKYRGLNRRLNIRGCVSLSGMIAVEALGLPSSYIYKSFFMPLSRFLSDFLPTLRLLCEMPYKRFQYIRDIGRFDTMRYRRGITCRFAYELLKAMDNLDHDMRFMPRDIPVLFIHSSKDKLCYPGGVVSFYNRLNIRNKELHMLNYMEHMLTMEPGNERVLSKIMNWLYNMSRPQRITA”, the “soluble on expression in E. coli” value was “not soluble”. In the case of “MAEDIEEILAEIDGSQIEEYQKFFDAFDRGKQGYIMATQIGQIMHGMEQDFDEKTLRKLIRKFDADGSGKLEFDEFCALVYTVANTVDKETLEKELREAFRLFDKEGNGYISRPTLKALLKEIADDLTDQQLEEAVDEIDEDGSGKIEFEEFWELMAGESD”, the “soluble on expression in E. coli” value is reported as “not soluble”. In the case of “SATLKVSDSVPAPSDDAEQLRTAFEGWGTNEDLIISILAHRSAEQRKVIRQAYHETYGEDLLKTLDKELSNDFERAILLWTLEPGERDALLANEATKRWTSSNQVLMEVACTRTSTQLLHARQAYHARYKKSLEEDVAHHTTGDFRKLLVSLVTSYRYEGDEVNMTLAKQEAKLVHEKIKDKHYNDEDVIRILSTRSKAQINATFNRYQDDHGEEILKSLEEGDDDDKFLALLRSTIQCLTRPELYFVDVLRSAINKTGTDEGALTRIVTTRAEIDLKVIGEEYQRRNSIPLEKAITKDTRGDYEKMLVALLGEDDA”, the “soluble on expression in E. coli” value is reported as “soluble”. In the case of “MDNKTYEISSAEWEVMNIIWMKKYASANNIIEEIQMQKDWSPKTIRTLITRLYKKGFIDRKKDNKIFQYYSLVEESDIKYKTSKNFINKVYKGGFNSLVLNFVEKEDLSQDEIEELRNILNKK”, the “soluble on expression in E. coli” value is reported as “soluble”.
